Test results reported in PMC8194098.

Target: Ras:G12V mutant (UniProt P01112)
Test: pull-down

percent inhibition of binding: 80%
B1: RIN1-RA:R629A mutant (natural protein)
chain: MESPGESGAGSPGAPSPSSFTTGHLAREKPAQDPLYDVPNASGGQAGGPQRPGRVVSLRERLLLTRPVWLQLQANAAAALHMLRTEPPGTFLVRKSNTRQCQALCMRLPEASGPSFVSSHYILESPGGVSLEGSELMFPDLVQLICAYCHTRDILLLPLQLPRAIHHAATHKELEAISHLGIEFWSSSLNIKAQRGPAGGPVLPQLKARSPQELDQGTGAALCFFNPLFPGDLGPTKREKFKRSFKVRVSTETSSPLSPPAVPPPPVPVLPGAVPSQTERLPPCQLLRRESSVGYRVPAGSGPSLPPMPSLQEVDCGSPSSSEEEGVPGSRGSPATSPHLGRRRPLLRSMSAAFCSLLAPERQVGRAAAALMQDRHTAAGQLVQDLLTQVRAGPEPQELQGIRQALSRARAMLSAELGPEKLLSPKRLEHVLEKSLHCSVLKPLRPILAARLRRRLAADGSLGRLAEGLRLARAQGPGAFGSHLSLPSPVELEQVRQKLLQLLRTYSPSAQVKRLLQACKLLYMALRTQEGEGAGADEFLPLLSLVLAHCDLPELLLEAEYMSELLEPSLLTGEGGYYLTSLSASLALLSGLGQAHTLPLSPVQELRRSLSLWEQRRLPATHCFQHLLAVAYQDPSSGCTSKTLAVPPEASIATLNQLCATKFRVTQPNTFGLFLYKEQGYHRLPPGALAHRLPTTGYLVYRRAEWPETQGAVTEEEGSGQSEARSRGEEQGCQGDGDAGVKASPRDIREQSETTAEGGQGQAQEGPAQPGEPEAEGSRAAEE
